According to article PMC12164976 (Science Advances, 2025):
Read-outs that look alike come from different tables or passages of the source. No end group written: not given here.

T1: chloroplast signal recognition particle 43-kDa protein (cpSRP43), wild type, full length (A. thaliana, UniProt O22265 57-373)
T1 sequence: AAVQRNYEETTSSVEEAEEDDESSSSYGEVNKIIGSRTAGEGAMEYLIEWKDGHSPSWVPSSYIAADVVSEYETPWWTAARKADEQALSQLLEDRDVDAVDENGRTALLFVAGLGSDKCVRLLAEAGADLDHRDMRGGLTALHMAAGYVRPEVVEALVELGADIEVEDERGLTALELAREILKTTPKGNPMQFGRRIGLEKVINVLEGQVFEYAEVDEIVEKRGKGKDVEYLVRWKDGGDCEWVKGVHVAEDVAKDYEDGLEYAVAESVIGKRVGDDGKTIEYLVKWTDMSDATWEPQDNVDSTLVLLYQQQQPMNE


Experiments:
Assay in all cases: fluorescence polarisation
[1] = molecular target: T1, chloroplast signal recognition particle …
[2] = molecular target: T1, chloroplast signal recognition particle …; remark: listed apart in the source
[3] = molecular target: T1, chloroplast signal recognition particle …; remark: listed apart in the source

Kd [1]	Kd [2]	Kd [3]	Binder
12 nM	28 nM	710 nM	GSFDPLGLADD (also: HiLyte Fluor 488 label, position not given here) [HiLyte Fluor 488-labeled L11 peptide]
36 nM	230 nM	5000 nM	QKQKAPPGTARRKRKAC (also: fluorescein label, position not given here) [fluorescein-labeled 54C peptide]
